Laboratory results taken from US20150344540A1, “NOVEL GLP-1 RECEPTOR AGONISTS WITH CHOLESTEROL EFFLUX ACTIVITY” (NOVO NORDISK A/S, priority 2012, published 2015).
Where no end group is shown, it is not given here. [ ]: non-standard residue; d: D form. Aib = CC(C)(N)C(=O)O

B1: [Aib2,Glu21,Lys29,Aib30,Leu31,Glu32,Leu34,Glu35,Leu36,Leu37]-Exendin-4-(1-37)-peptide amide (peptide)
peptide: H[Aib]EGTFTSDLSKQMEEEAVREFIEWLKNK[Aib]LESLELL-NH2
modifications: N-terminus assumed
SMILES: CC[C@H](C)[C@H](NC(=O)[C@H](Cc1ccccc1)NC(=O)[C@H](CCC(=O)O)NC(=O)[C@H](CCCNC(=N)N)NC(=O)[C@@H](NC(=O)[C@H](C)NC(=O)[C@H](CCC(=O)O)NC(=O)[C@H](CCC(=O)O)NC(=O)[C@H](CCC(=O)O)NC(=O)[C@H](CCSC)NC(=O)[C@H](CCC(N)=O)NC(=O)[C@H](CCCCN)NC(=O)[C@H](CO)NC(=O)[C@H](CC(C)C)NC(=O)[C@H](CC(=O)O)NC(=O)[C@H](CO)NC(=O)[C@@H](NC(=O)[C@H](Cc1ccccc1)NC(=O)[C@@H](NC(=O)CNC(=O)[C@H](CCC(=O)O)NC(=O)C(C)(C)NC(=O)[C@@H](N)Cc1c[nH]cn1)[C@@H](C)O)[C@@H](C)O)C(C)C)C(=O)N[C@@H](CCC(=O)O)C(=O)N[C@@H](Cc1c[nH]c2ccccc12)C(=O)N[C@@H](CC(C)C)C(=O)N[C@@H](CCCCN)C(=O)N[C@@H](CC(N)=O)C(=O)N[C@@H](CCCCN)C(=O)NC(C)(C)C(=O)N[C@@H](CC(C)C)C(=O)N[C@@H](CCC(=O)O)C(=O)N[C@@H](CO)C(=O)N[C@@H](CC(C)C)C(=O)N[C@@H](CCC(=O)O)C(=O)N[C@@H](CC(C)C)C(=O)N[C@@H](CC(C)C)C(N)=O
B2: [Aib2,Glu21,Lys29,Aib30,Leu31,Phe33,Leu34,Glu35,Leu36,Leu37]-Exendin-4-(1-37)-peptide amide (peptide)
peptide: H[Aib]EGTFTSDLSKQMEEEAVREFIEWLKNK[Aib]LSFLELL-NH2
modifications: N-terminus assumed
SMILES: CC[C@H](C)[C@H](NC(=O)[C@H](Cc1ccccc1)NC(=O)[C@H](CCC(=O)O)NC(=O)[C@H](CCCNC(=N)N)NC(=O)[C@@H](NC(=O)[C@H](C)NC(=O)[C@H](CCC(=O)O)NC(=O)[C@H](CCC(=O)O)NC(=O)[C@H](CCC(=O)O)NC(=O)[C@H](CCSC)NC(=O)[C@H](CCC(N)=O)NC(=O)[C@H](CCCCN)NC(=O)[C@H](CO)NC(=O)[C@H](CC(C)C)NC(=O)[C@H](CC(=O)O)NC(=O)[C@H](CO)NC(=O)[C@@H](NC(=O)[C@H](Cc1ccccc1)NC(=O)[C@@H](NC(=O)CNC(=O)[C@H](CCC(=O)O)NC(=O)C(C)(C)NC(=O)[C@@H](N)Cc1c[nH]cn1)[C@@H](C)O)[C@@H](C)O)C(C)C)C(=O)N[C@@H](CCC(=O)O)C(=O)N[C@@H](Cc1c[nH]c2ccccc12)C(=O)N[C@@H](CC(C)C)C(=O)N[C@@H](CCCCN)C(=O)N[C@@H](CC(N)=O)C(=O)N[C@@H](CCCCN)C(=O)NC(C)(C)C(=O)N[C@@H](CC(C)C)C(=O)N[C@@H](CO)C(=O)N[C@@H](Cc1ccccc1)C(=O)N[C@@H](CC(C)C)C(=O)N[C@@H](CCC(=O)O)C(=O)N[C@@H](CC(C)C)C(=O)N[C@@H](CC(C)C)C(N)=O
B3: [Aib2,Glu21,Lys29,Aib30,Leu31,Glu32,Phe33,Leu34,Glu35,Leu37]-Exendin-4-(1-37)-peptide amide (peptide)
peptide: H[Aib]EGTFTSDLSKQMEEEAVREFIEWLKNK[Aib]LEFLEPL-NH2
modifications: N-terminus assumed
SMILES: CC[C@H](C)[C@H](NC(=O)[C@H](Cc1ccccc1)NC(=O)[C@H](CCC(=O)O)NC(=O)[C@H](CCCNC(=N)N)NC(=O)[C@@H](NC(=O)[C@H](C)NC(=O)[C@H](CCC(=O)O)NC(=O)[C@H](CCC(=O)O)NC(=O)[C@H](CCC(=O)O)NC(=O)[C@H](CCSC)NC(=O)[C@H](CCC(N)=O)NC(=O)[C@H](CCCCN)NC(=O)[C@H](CO)NC(=O)[C@H](CC(C)C)NC(=O)[C@H](CC(=O)O)NC(=O)[C@H](CO)NC(=O)[C@@H](NC(=O)[C@H](Cc1ccccc1)NC(=O)[C@@H](NC(=O)CNC(=O)[C@H](CCC(=O)O)NC(=O)C(C)(C)NC(=O)[C@@H](N)Cc1c[nH]cn1)[C@@H](C)O)[C@@H](C)O)C(C)C)C(=O)N[C@@H](CCC(=O)O)C(=O)N[C@@H](Cc1c[nH]c2ccccc12)C(=O)N[C@@H](CC(C)C)C(=O)N[C@@H](CCCCN)C(=O)N[C@@H](CC(N)=O)C(=O)N[C@@H](CCCCN)C(=O)NC(C)(C)C(=O)N[C@@H](CC(C)C)C(=O)N[C@@H](CCC(=O)O)C(=O)N[C@@H](Cc1ccccc1)C(=O)N[C@@H](CC(C)C)C(=O)N[C@@H](CCC(=O)O)C(=O)N1CCC[C@H]1C(=O)N[C@@H](CC(C)C)C(N)=O
B4: [Aib2,Glu21,Lys29,Aib30,Leu31,Glu32,Phe33,Glu35,Leu36,Leu37]-Exendin-4-(1-37)-peptide amide (peptide)
peptide: H[Aib]EGTFTSDLSKQMEEEAVREFIEWLKNK[Aib]LEFGELL-NH2
modifications: N-terminus assumed
SMILES: CC[C@H](C)[C@H](NC(=O)[C@H](Cc1ccccc1)NC(=O)[C@H](CCC(=O)O)NC(=O)[C@H](CCCNC(=N)N)NC(=O)[C@@H](NC(=O)[C@H](C)NC(=O)[C@H](CCC(=O)O)NC(=O)[C@H](CCC(=O)O)NC(=O)[C@H](CCC(=O)O)NC(=O)[C@H](CCSC)NC(=O)[C@H](CCC(N)=O)NC(=O)[C@H](CCCCN)NC(=O)[C@H](CO)NC(=O)[C@H](CC(C)C)NC(=O)[C@H](CC(=O)O)NC(=O)[C@H](CO)NC(=O)[C@@H](NC(=O)[C@H](Cc1ccccc1)NC(=O)[C@@H](NC(=O)CNC(=O)[C@H](CCC(=O)O)NC(=O)C(C)(C)NC(=O)[C@@H](N)Cc1c[nH]cn1)[C@@H](C)O)[C@@H](C)O)C(C)C)C(=O)N[C@@H](CCC(=O)O)C(=O)N[C@@H](Cc1c[nH]c2ccccc12)C(=O)N[C@@H](CC(C)C)C(=O)N[C@@H](CCCCN)C(=O)N[C@@H](CC(N)=O)C(=O)N[C@@H](CCCCN)C(=O)NC(C)(C)C(=O)N[C@@H](CC(C)C)C(=O)N[C@@H](CCC(=O)O)C(=O)N[C@@H](Cc1ccccc1)C(=O)NCC(=O)N[C@@H](CCC(=O)O)C(=O)N[C@@H](CC(C)C)C(=O)N[C@@H](CC(C)C)C(N)=O
B5: [Aib2,Glu21,Lys29,Aib30,Glu32,Phe33,Leu34,Glu35,Leu36,Leu37]-Exendin-4-(1-37)-peptide amide (peptide)
peptide: H[Aib]EGTFTSDLSKQMEEEAVREFIEWLKNK[Aib]PEFLELL-NH2
modifications: N-terminus assumed
SMILES: CC[C@H](C)[C@H](NC(=O)[C@H](Cc1ccccc1)NC(=O)[C@H](CCC(=O)O)NC(=O)[C@H](CCCNC(=N)N)NC(=O)[C@@H](NC(=O)[C@H](C)NC(=O)[C@H](CCC(=O)O)NC(=O)[C@H](CCC(=O)O)NC(=O)[C@H](CCC(=O)O)NC(=O)[C@H](CCSC)NC(=O)[C@H](CCC(N)=O)NC(=O)[C@H](CCCCN)NC(=O)[C@H](CO)NC(=O)[C@H](CC(C)C)NC(=O)[C@H](CC(=O)O)NC(=O)[C@H](CO)NC(=O)[C@@H](NC(=O)[C@H](Cc1ccccc1)NC(=O)[C@@H](NC(=O)CNC(=O)[C@H](CCC(=O)O)NC(=O)C(C)(C)NC(=O)[C@@H](N)Cc1c[nH]cn1)[C@@H](C)O)[C@@H](C)O)C(C)C)C(=O)N[C@@H](CCC(=O)O)C(=O)N[C@@H](Cc1c[nH]c2ccccc12)C(=O)N[C@@H](CC(C)C)C(=O)N[C@@H](CCCCN)C(=O)N[C@@H](CC(N)=O)C(=O)N[C@@H](CCCCN)C(=O)NC(C)(C)C(=O)N1CCC[C@H]1C(=O)N[C@@H](CCC(=O)O)C(=O)N[C@@H](Cc1ccccc1)C(=O)N[C@@H](CC(C)C)C(=O)N[C@@H](CCC(=O)O)C(=O)N[C@@H](CC(C)C)C(=O)N[C@@H](CC(C)C)C(N)=O

Molecular target: human GLP-1 receptor (human, UniProt P43220)
Test: cell-based or functional assay

Row | Binder | CRE luciferase EC50, 0% HSA [nM] | CRE luciferase EC50, 1% HSA [nM]
1 | B1 | 0.023 | 0.011
2 | B2 | 0.358 | 0.145
3 | B3 | 0.032 | 0.013
4 | B4 | 0.026 | 0.012
5 | B5 | 0.058 | 0.032
